From patent US10800847

How the values were obtained:
[1] = target: HLA-A*3303 (A33) single antigen on beads (human); test: Luminex single-antigen regular beads (#7), IVIg 1:8
[2] = target: HLA-A*6601 (A66) single antigen on beads (human); test: as above
[3] = target: HLA-A*3402 (A34) single antigen on beads (human); test: as above
[4] = target: HLA-A*6602 (A66) single antigen on beads (human); test: as above
[5] = target: HLA-A*2902 (A29) single antigen on beads (human); test: as above
[6] = target: HLA-A*3101 (A31) single antigen on beads (human); test: as above
[7] = target: HLA-A*3002 (A30) single antigen on beads (human); test: as above
[8] = target: HLA-A*3001 (A30) single antigen on beads (human); test: as above
[9] = target: HLA-A*3301 (A33) single antigen on beads (human); test: as above
[10] = target: HLA-A*3601 (A36) single antigen on beads (human); test: as above
[11] = target: HLA-A*3201 (A32) single antigen on beads (human); test: as above
[12] = target: HLA-A*6801 (A68) single antigen on beads (human); test: as above
[13] = target: HLA-A*3401 (A34) single antigen on beads (human); test: as above
[14] = target: HLA-A*8001 (A80) single antigen on Luminex beads (human); test: Luminex single antigen bead assay, regular beads (#7), IVIg 1:8
[15] = target: HLA-A*6901 (A69) single antigen on Luminex beads (human); test: as above
[16] = target: HLA-A*7401 (A74) single antigen on Luminex beads (human); test: as above
HLA-B*8201 (B82) (human) = test: Luminex, iBeads (#6), 1:8
[17] = target: HLA-Cw*0801 (Cw8) (human); test: Luminex, iBeads (#6), 1:8
[18] = target: HLA-Cw*1203 (Cw12) (human); test: Luminex, iBeads (#6), 1:8
[19] = target: HLA-Cw*1802 (Cw18) (human); test: Luminex, iBeads (#6), 1:8
[20] = target: HLA-Cw*1701 (Cw17) (human); test: Luminex, iBeads (#6), 1:8
[21] = target: HLA-Cw*0602 (Cw6) (human); test: Luminex, iBeads (#6), 1:8
[22] = target: HLA-Cw*0304 (Cw10) (human); test: Luminex, iBeads (#6), 1:8
[23] = target: HLA-Cw*0501 (Cw5) (human); test: Luminex, iBeads (#6), 1:8
[24] = target: HLA-Cw*1601 (Cw16) (human); test: Luminex, iBeads (#6), 1:8
[25] = target: HLA-Cw*0302 (Cw10) (human); test: Luminex, iBeads (#6), 1:8
[26] = target: HLA-Cw*0303 (Cw9) (human); test: Luminex, iBeads (#6), 1:8
HLA-B*1301 (B13) (human) = test: iBead MFI against regular-bead MFI, IVIg diluted 1:8
HLA-B*1503 (B72) (human) = test: as above
HLA-B*1502 (B75) (human) = test: as above
HLA-B*1302 (B13) (human) = test: as above
HLA-B*1512 (B76) (human) = test: as above
HLA-B*1510 (B71) (human) = test: as above
HLA-B*0801 (B8) (human) = test: as above
[27] = target: Serum albumin on negative control beads (HSA/BSA) (human or bovine); test: as above
HLA-B*1501 (B62) (human) = test: as above
HLA-B*1401 (B64) (human) = test: as above
HLA-B*1511 (B75) (human) = test: as above
HLA-B*1402 (B65) (human) = test: as above
HLA-B*1513 (B77) (human) = test: as above
HLA-B*0702 (B7) (human) = test: as above
HLA-B*1801 (B18) (human) = test: as above
[28] = target: HLA-A*8001 (A80) single antigen on Luminex beads (human); test: Luminex single antigen bead assay, iBeads vs regular beads, IVIg 1:8
[29] = target: HLA-A*6901 (A69) single antigen on Luminex beads (human); test: as above

In the case of “IVIg Octagam (Octapharma, Lachen, Switzerland) (antibody)”, the MFI [1] was 542 MFI, the MFI [2] was 1700 MFI and the MFI [3] was 0 MFI. For the same substance, the MFI [4] was 3650 MFI, the MFI [5] was 1580 MFI and the MFI [6] was 366 MFI. It also gave an MFI [7] of 533 MFI, an MFI [8] of 928 MFI and an MFI [9] of 1490 MFI. The MFI [10] was 778 MFI, the MFI [11] was 738 MFI and the MFI [12] was 0 MFI. It also gave an MFI [13] of 2880 MFI, an MFI [14] of 2290 MFI and an MFI [15] of 1720 MFI. For the same substance, the MFI [16] was 201 MFI, the MFI (HLA-B*8201 (B82) (human)) was 510 MFI and the MFI [17] was 650 MFI. It also gave an MFI [18] of 1620 MFI, an MFI [19] of 873 MFI and an MFI [20] of 2710 MFI. The MFI [21] was 586 MFI, the MFI [22] was 1440 MFI and the MFI [23] was 1510 MFI. The MFI [24] was 1110 MFI, the MFI [25] was 1170 MFI and the MFI [26] was 1220 MFI. It also gave a Difference % (iBead vs regular bead) (HLA-B*1301 (B13) (human)) of -99%, a Difference % (iBead vs regular bead) (HLA-B*1503 (B72) (human)) of -100% and a Difference % (iBead vs regular bead) (HLA-B*1502 (B75) (human)) of -100%. For the same substance, the Difference % (iBead vs regular bead) (HLA-B*1302 (B13) (human)) was -100%, the Difference % (iBead vs regular bead) (HLA-B*1512 (B76) (human)) was 23% and the Difference % (iBead vs regular bead) (HLA-B*1510 (B71) (human)) was -100%. It also gave a Difference % (iBead vs regular bead) (HLA-B*0801 (B8) (human)) of -95%, a Difference % (iBead vs regular bead) [27] of -29% and a Difference % (iBead vs regular bead) (HLA-B*1501 (B62) (human)) of -100%. For the same substance, the Difference % (iBead vs regular bead) (HLA-B*1401 (B64) (human)) was -96%, the Difference % (iBead vs regular bead) (HLA-B*1511 (B75) (human)) was -70% and the Difference % (iBead vs regular bead) (HLA-B*1402 (B65) (human)) was -100%. It also gave a Difference % (iBead vs regular bead) (HLA-B*1513 (B77) (human)) of -89%, a Difference % (iBead vs regular bead) (HLA-B*0702 (B7) (human)) of -100% and a Difference % (iBead vs regular bead) (HLA-B*1801 (B18) (human)) of -100%. The Difference % (iBead MFI against regular bead MFI) [28] was -63% and the Difference % (iBead MFI against regular bead MFI) [29] was -53%.
